Measured values from article PMC3280929, “Engineered Trx2p industrial yeast strain protects glycolysis and fermentation proteins from oxidative carbonylation during biomass propagation” (Microbial Cell Factories, 2012).
Where “and” joins values, the source holds several entries; their conditions need not be identical. Equal entries are not always repeated.

Molecular target: the molecule itself
Assay: SDS-PAGE and anti-Adh1p western blot of SDS-resistant oligomers; crude extracts of T73 cells (dehydrated, grown 5 h in YPGF, or fresh with or without 5 mM glyoxal), 10% SDS-polyacrylamide gel under denaturing conditions, polyclonal anti-Adh1p

B1: alcohol dehydrogenase I (Adh1p) (enzyme, S. cerevisiae (endogenous in strain T73), UniProt P00330 1-348, looked up)
chain: MSIPETQKGVIFYESHGKLEYKDIPVPKPKANELLINVKYSGVCHTDLHAWHGDWPLPVKLPLVGGHEGAGVVVGMGENVKGWKIGDYAGIKWLNGSCMACEYCELGNESNCPHADLSGYTHDGSFQQYATADAVQAAHIPQGTDLAQVAPILCAGITVYKALKSANLMAGHWVAISGAAGGLGSLAVQYAKAMGYRVLGIDGGEGKEELFRSIGGEVFIDFTKEKDIVGAVLKATDGGAHGVINVSVSEAAIEASTRYVRANGTTVLVGMPAGAKCCSDVFNQVVKSISIVGSYVGNRADTREALDFFARGLVKSPIKVVGLSTLPEIYEKMEKGQIVGRYVVDTSK
modifications: oxidative carbonylation of the dimer, tetramer and higher bands (residues not stated)
notes: Alcohol dehydrogenase I (Adh1p) of Saccharomyces cerevisiae, subunit of approximately 37 kDa; Endogenous protein of an industrial wine strain; source: endogenous, S. cerevisiae wine strain T73 (and TTRX2), crude cell extracts
  stoichiometry N: 2 and 4
